{"source": "patent US20030134779A1", "about": "“Method and composition for treatment and/or prevention of antibiotic-resistant microorganism infections” (priority 2002, published 2003)", "molecules": {"B1": {"name": "LF: bovine lactoferrin, 80-kDa iron-binding glycoprotein found in milk (protein, UniProt P24627 20-708, looked up)", "Lactotransferrin": "APRKNVRWCTISQPEWFKCRRWQWRMKKLGAPSITCVRRAFALECIRAIAEKKADAVTLDGGMVFEAGRDPYKLRPVAAEIYGTKESPQTHYYAVAVVKKGSNFQLDQLQGRKSCHTGLGRSAGWIIPMGILRPYLSWTESLEPLQGAVAKFFSASCVPCIDRQAYPNLCQLCKGEGENQCACSSREPYFGYSGAFKCLQDGAGDVAFVKETTVFENLPEKADRDQYELLCLNNSRAPVDAFKECHLAQVPSHAVVARSVDGKEDLIWKLLSKAQEKFGKNKSRSFQLFGSPPGQRDLLFKDSALGFLRIPSKVDSALYLGSRYLTTLKNLRETAEEVKARYTRVVWCAVGPEEQKKCQQWSQQSGQNVTCATASTTDDCIVLVLKGEADALNLDGGYIYTAGKCGLVPVLAENRKSSKHSSLDCVLRPTEGYLAVAVVKKANEGLTWNSLKDKKSCHTAVDRTAGWNIPMGLIVNQTGSCAFDEFFSQSCAPGADPKSRLCALCAGDDQGLDKCVPNSKEKYYGYTGAFRCLAEDVGDVAFVKNDTVWENTNGESTADWAKNLNREDFRLLCLDGTRKPVTEAQSCHLAVAPNHAVVSRSDRAAHVKQVLLHQQALFGKNGKNCPDKFCLFKSETKNLLFNDNTECLAKLGGRPTYEEYLGTEYVTAIANLKKCSTSPLLEACAFLTR"}}, "format_in_all_cases": "cell-based, Staphylococcus aureus", "key": {"[1]": {"test_system": "S. aureus strains", "experiment": "MIC / FIC determination, summary over strains", "conditions": "strains of Table 1", "from_the_text": "Staphylococcus aureus strains ATCC 25923 and 6538 and Escherichia coli ATCC 25922 were obtained from the American Type Culture Collection. Eight bovine mastitis clinical isolates of S. aureus (SHY97-3906, -3923, -4085 -4242, -4320 and -4343, RFT-1 and RFT-5) and one isolate of E. coli SHY97-3923-2 and one isolate of Kiebsiella pneumoniae SHY99-723-1 were kindly provided by the Laboratoire Provincial de Pathologie Animale of St-Hyacinthe and of Rock-Forest (Quebec, Canada), respectively. Nine β-lactam antibiotics resistant S. aureus strains (PC-1, NCTC 9789, 2076, 22260, ST79/741, 3804, RN9, FAR8, and FAR10) were obtained from Vanderbilt University School of Medicine (Nashville, Tenn., USA). […]\nThe MICs were determined by both macrodilution (1 ml/tube) and microdilution (100 μl/well) in sterile 96 well microtiter plates (International Nunc, Napierville, Ill.) techniques in three separate experiments according to the National Committee for Clinical Laboratory Standards (1992 and 1999) in three separate experiments. […] Effect of LF combination with antibiotic on MICs were determined by adding 0.5 mg or 1 mg/ml of LF to each antibiotic dilution. […] Effect of LF or LFC combination with antibiotic on MIC was also determined by checkerboard method using 96 well microtiter plates. […] The fractional inhibitory concentration (FIC) was calculated as described by Eliopoulos and Moellering (1991). […]"}, "[2]": {"test_system": "S. aureus SHY97-4320", "experiment": "WGA-gold labelling of cell wall and cell division, electron microscopy", "experimental": "To investigate the mechanism of action of LF in combination with penicillin G on cell division, transmission electron microscopy was also performed on thin section of a β-lactamase producing S. aureus SHY97-4320. Bacterial cells were grown in MHB containing 8 μg/ml of penicillin G, 1 mg/ml LF alone or in combination for 4-h at 37° C. with agitation at 150 rpm. Bacteria were harvested and incubated or not for 2-h in 0.02 M Tris (pH 7.4) containing 0.15 M NaCl, 0.5 mg/ml and 50 μl of wheat germ agglutinin (WGA) gold (Sigma Chemicals, St-Louis, Mo.) for 2 h. Bacteria cell morphology was evaluated by transmission electron microscopy as previously described. Effects of treatments were evaluated and compared by “t” test. […] The WGA has an affinity for N-acetyl-β-D-glucosamyl residues and N-acetyl-β-D-glucosamine oligomer. After treatment with LF, S. aureus cells were less covered (P<0.005) with WGA-gold (FIG. 12 and Table 3)."}, "[3]": {"test_system": "S. aureus PC-1", "experiment": "Cell morphology by transmission electron microscopy", "conditions": "exposure to LF or LFC", "experimental": "Bacterial cells were grown overnight on MHA or MHB containing sub-MICs of penicillin G with or without LF or LFC. Microorganisms were prepared for transmission electron microscopy by fixation with glutaraldehyde followed by ferritin labelling. This method allows good- preservation of capsular material. Briefly, bacterial cells grown in the presence or absence of antibiotics were fixed in cacodylate buffer (0.1 M, pH 7.0) containing 5% (v/v) glutaraldehyde, for 2 h at 20° C. Fixed microorganims were suspended in cacodylate buffer and allowed to react with the polycationic ferritin (Sigma Chemicals, St-Louis, Mo.; final concentration 1.0 mg/ml) for 30 min at 20° C. The reaction was slowed down by 10-fold dilution with buffer, and the microorganisms were centrifuged and washed three times in cacodylate buffer. Bacterial cells were then immobilized in 4% (w/v) agar, washed 5 times in cacodylate buffer and post-fixed with 2% (w/v) osmium tetroxide for 2 h. […]\nBacterial cells of PC-1 (a constitutively high producing β-lactamase strain) were grown overnight in MHB containing 8 μg/ml of penicillin G, 16 μg/ml of LFC alone or in combination for 4-h at 37° C. with agitation at 150 rpm. Bacteria cell morphology was evaluated by transmission electron microscopy after fixation and ferritin labelling method as previously described."}}}
{"molecule": "B1", "values": [{"measurement": "MICs of lactoferrin alone", "setting": "[1]", "value": "greater than 25 mg/ml"}, {"measurement": "cell division", "setting": "[2]; LF 1 mg/ml alone or in combination with penicillin", "value": "Groups of multiple undivided cell"}, {"measurement": "coverage of cells with WGA-gold", "setting": "[2]; after treatment with LF, P<0.005", "value": "less covered"}, {"measurement": "shape and size of cells", "setting": "[3]", "value": "affected the shape and the size"}]}
